{"source": "the supplement of paper PMC5998384", "key": {"[1]": {"system": "HeLa Kyoto", "test": "melting temperature (median over replicates), in situ; higher = more thermally stable"}, "[2]": {"system": "HeLa Kyoto", "test": "solubility change mitosis vs G1/S (difference of NP-40 vs SDS log2 ratios) (log2 ratio difference); higher = more soluble in mitosis"}, "[3]": {"system": "HeLa Kyoto", "test": "solubility in G1/S (NP-40 vs SDS abundance) (log2 ratio); higher = more soluble", "conditions": "cell cycle stage: G1/S"}, "[4]": {"system": "HeLa Kyoto", "test": "thermal stability score vs G1/S (z-score of summed log2 fold changes over temperatures); higher = more thermally stable than in G1/S"}, "[5]": {"conditions": "cell cycle stage: early G1 (4.5 h after nocodazole release)"}}}
{"substance": "MHPPETTTKMASVRFMVTPTKIDDIPGLSDTSPDLSSRSSSRVRFSSRESVPETSRSEPMSEMSGATTSLATVALDPPSDRTSHPQDVIEDLSQNSITGEHSQLLDDGHKKARNAYLNNSNYEEGDEYFDKNLALFEEEMDTRPKVSSLLNRMANYTNLTQGAKEHEEAENITEGKKKPTKTPQMGTFMGVYLPCLQNIFGVILFLRLTWVVGTAGVLQAFAIVLICCCCTMLTAISMSAIATNGVVPAGGSYFMISRALGPEFGGAVGLCFYLGTTFAAAMYILGAIEIFLVYIVPRAAIFHSDDALKESAAMLNNMRVYGTAFLVLMVLVVFIGVRYVNKFASLFLACVIVSILAIYAGAIKSSFAPPHFPVCMLGNRTLSSRHIDVCSKTKEINNMTVPSKLWGFFCNSSQFFNATCDEYFVHNNVTSIQGIPGLASGIITENLWSNYLPKGEIIEKPSAKSSDVLGSLNHEYVLVDITTSFTLLVGIFFPSVTGIMAGSNRSGDLKDAQKSIPIGTILAILTTSFVYLSNVVLFGACIEGVVLRDKFGDAVKGNLVVGTLSWPSPWVIVIGSFFSTCGAGLQSLTGAPRLLQAIAKDNIIPFLRVFGHSKANGEPTWALLLTAAIAELGILIASLDLVAPILSMFFLMCYLFVNLACALQTLLRTPNWRPRFRYYHWALSFMGMSICLALMFISSWYYAIVAMVIAGMIYKYIEYQGAEKEWGDGIRGLSLSAARFALLRLEEGPPHTKNWRPQLLVLLKLDEDLHVKHPRLLTFASQLKAGKGLTIVGSVIVGNFLENYGEALAAEQTIKHLMEAEKVKGFCQLVVAAKLREGISHLIQSCGLGGMKHNTVVMGWPNGWRQSEDARAWKTFIGTVRVTTAAHLALLVAKNISFFPSNVEQFSEGNIDVWWIVHDGGMLMLLPFLLKQHKVWRKCSIRIFTVAQLEDNSIQMKKDLATFLYHLRIEAEVEVVEMHDSDISAYTYERTLMMEQRSQMLRHMRLSKTERDREAQLVKDRNSMLRLTSIGSDEDEETETYQEKVHMTWTKDKYMASRGQKAKSMEGFQDLLNMRPDQSNVRRMHTAVKLNEVIVNKSHEAKLVLLNMPGPPRNPEGDENYMEFLEVLTEGLERVLLVRGGGSEVITIYS [SLC12A6]", "values": [{"measurement": "melting temperature", "setting": "[1]; cell cycle stage: G1/S", "result": 54.8, "unit": "°C"}, {"measurement": "melting temperature", "setting": "[1]; cell cycle stage: mitosis", "result": 54.4, "unit": "°C"}, {"measurement": "solubility change mitosis (log2)", "setting": "[2]", "result": 0.00121}, {"measurement": "solubility in G1/S (log2)", "setting": "[3]", "result": -0.0182}, {"measurement": "thermal stability score", "setting": "[4]; [5]", "result": -0.231}, {"measurement": "thermal stability score", "setting": "[4]; cell cycle stage: mitosis", "result": -0.0357}]}
{"substance": "MPGSLPLNAEACWPKDVGIVALEIYFPSQYVDQAELEKYDGVDAGKYTIGLGQAKMGFCTDREDINSLCMTVVQNLMERNNLSYDCIGRLEVGTETIIDKSKSVKTNLMQLFEESGNTDIEGIDTTNACYGGTAAVFNAVNWIESSSWDGRYALVVAGDIAVYATGNARPTGGVGAVALLIGPNAPLIFERGLRGTHMQHAYDFYKPDMLSEYPIVDGKLSIQCYLSALDRCYSVYCKKIHAQWQKEGNDKDFTLNDFGFMIFHSPYCKLVQKSLARMLLNDFLNDQNRDKNSIYSGLEAFGDVKLEDTYFDRDVEKAFMKASSELFSQKTKASLLVSNQNGNMYTSSVYGSLASVLAQYSPQQLAGKRIGVFSYGSGLAATLYSLKVTQDATPGSALDKITASLCDLKSRLDSRTGVAPDVFAENMKLREDTHHLVNYIPQGSIDSLFEGTWYLVRVDEKHRRTYARRPTPNDDTLDEGVGLVHSNIATEHIPSPAKKVPRLPATAAEPEAAVISNGEH [HMGCS1]", "values": [{"measurement": "melting temperature", "setting": "[1]; cell cycle stage: G1/S", "result": 54, "unit": "°C"}, {"measurement": "melting temperature", "setting": "[1]; cell cycle stage: mitosis", "result": 55.2, "unit": "°C"}, {"measurement": "solubility change mitosis (log2)", "setting": "[2]", "result": -0.0813}, {"measurement": "solubility in G1/S (log2)", "setting": "[3]", "result": 0.0526}, {"measurement": "thermal stability score", "setting": "[4]; [5]", "result": -0.19}, {"measurement": "thermal stability score", "setting": "[4]; cell cycle stage: mitosis", "result": 3.42}]}
{"substance": "PHF5A", "values": [{"measurement": "melting temperature", "setting": "[1]; cell cycle stage: G1/S", "result": 53.8, "unit": "°C"}, {"measurement": "melting temperature", "setting": "[1]; cell cycle stage: mitosis", "result": 52.2, "unit": "°C"}, {"measurement": "solubility change mitosis (log2)", "setting": "[2]", "result": 0.276}, {"measurement": "solubility in G1/S (log2)", "setting": "[3]", "result": -0.51}, {"measurement": "thermal stability score", "setting": "[4]; [5]", "result": -3.94}, {"measurement": "thermal stability score", "setting": "[4]; cell cycle stage: mitosis", "result": -5.73}]}
